The labels stand for the following.
B1: periplasmically-targeted bovine enterokinase expressed with the DsbA periplasmic signal sequence (protein)
chain: IVGGSDSREGAWPWVVALYFDDQQVCGASLVSRDWLVSAAHCVYGRNMEPSKWKAVLGLHMASNLTSPQIETRLIDQIVINPHYNKRRKNNDIAMMHLEMKVNYTDYIQPICLPEENQVFPPGRICSIAGWGALIYQGSTADVLQEADVPLLSNEKCQQQMPEYNITENMVCAGYEAGGVDSCQGDSGGPLMCQENNRWLLAGVTSFGYQCALPNRPGVYARVPRFTEWIQSFLH
B2: periplasmically-targeted bovine enterokinase expressed with the OmpA periplasmic signal sequence (protein)
chain: B1 chain
B3: periplasmically-targeted bovine enterokinase expressed with the MalE periplasmic signal sequence (protein)
chain: B1 chain

From US20150064751 come the findings set out here.

This series concerns the target cleavage control protein containing an enterokinase cleavage site (Asp-Asp-Asp-Asp-Lys).
In the case of B1, the “cleavage of the 48 kDa control protein into 32 and 16 kDa fragments (SDS-PAGE, Coomassie; periplasmic fraction, 30 C, 24 h)” value is listed as “the periplasmically localized enterokinase is active in cleaving the target protein”.
The result for B2 reads “the periplasmically localized enterokinase is active in cleaving the target protein”.
To B3 belongs “the periplasmically localized enterokinase is active in cleaving the target protein”.
